Series [1] concerns the molecule itself. Kind of series: AUC; sedimentation velocity, SEC buffer, 20 °C, 42 000 rpm; P-PI4KB alone (20 µM) and with Rab11; stoichiometries independent of Rab11 nucleotide state.
In the next series the target is T1, pseudo-wt PI4KB (human, UniProt Q9UBF8 1-816, internal deletion of a disordered loop (residues 423-522)).
T1 construct: phosphatidylinositol 4-kinase IIIβ (PI4KB) with intact N-terminus, containing only the internal deletion (residues 423-522)
Kind of series: SAXS; ACBD3 and pseudo-wt PI4KB mixed 1:1, dialyzed against 20 mM Tris pH 8, 200 mM NaCl, 2 mM TCEP, 1% glycerol; 3.0 and 4.5 mg/ml. To be noted: both partners purified.

Series [2] concerns the target T2, pseudo-wt PI4KB labeled with Atto488 (human, UniProt Q9UBF8 1-816, internal deletion of a disordered loop (residues 423-522), Atto488 (maleimide labelling)).
T2 construct: phosphatidylinositol 4-kinase IIIβ (PI4KB) with intact N-terminus, containing only the internal deletion (residues 423-522); also called Atto488 labeled PI4KB; wild type PI4KB
Kind of series: GUV recruitment (confocal microscopy); ACBD3 tethered to GUVs with DGS-NTA(Ni); Atto488-PI4KB and mCherry-Rab11 in solution, each approximately 50 nM. To be noted: both partners purified.

T1 sequence (Q9UBF8 other isoform, or with tags, fused parts or gaps with the stated changes): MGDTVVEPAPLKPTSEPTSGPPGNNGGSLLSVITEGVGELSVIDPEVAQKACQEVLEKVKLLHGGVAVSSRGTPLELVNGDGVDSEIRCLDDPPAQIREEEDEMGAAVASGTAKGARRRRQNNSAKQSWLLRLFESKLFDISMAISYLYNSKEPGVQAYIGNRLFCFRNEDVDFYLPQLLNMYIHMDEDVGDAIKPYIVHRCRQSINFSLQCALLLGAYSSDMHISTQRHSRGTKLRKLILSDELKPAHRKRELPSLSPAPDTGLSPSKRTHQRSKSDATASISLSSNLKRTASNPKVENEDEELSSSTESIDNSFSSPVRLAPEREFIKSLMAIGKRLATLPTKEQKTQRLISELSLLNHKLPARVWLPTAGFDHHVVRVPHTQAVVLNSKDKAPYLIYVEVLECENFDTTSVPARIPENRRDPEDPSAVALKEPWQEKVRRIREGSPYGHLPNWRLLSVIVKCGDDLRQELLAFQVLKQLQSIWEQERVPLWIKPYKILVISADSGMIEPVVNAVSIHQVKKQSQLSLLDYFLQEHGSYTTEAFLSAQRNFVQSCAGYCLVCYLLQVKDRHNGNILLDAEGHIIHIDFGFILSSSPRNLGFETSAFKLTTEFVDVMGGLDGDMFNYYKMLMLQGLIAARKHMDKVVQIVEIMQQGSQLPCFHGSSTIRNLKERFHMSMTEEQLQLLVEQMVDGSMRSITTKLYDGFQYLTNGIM
T2 sequence (Q9UBF8 other isoform, or with tags, fused parts or gaps with the stated changes): as above

B1: phosphorylated PI4KB (residues 128-799, internal deletion 423-522, T292R, phosphorylated at S294 by PKA) (enzyme, human, UniProt Q9UBF8 128-799, looked up)
chain: SWLLRLFESKLFDISMAISYLYNSKEPGVQAYIGNRLFCFRNEDVDFYLPQLLNMYIHMDEDVGDAIKPYIVHRCRQSINFSLQCALLLGAYSSDMHISTQRHSRGTKLRKLILSDELKPAHRKRELPSLSPAPDTGLSPSKRTHQRSKSDATASISLSSNLKRRASNPKVENEDEELSSSTESIDNSFSSPVRLAPEREFIKSLMAIGKRLATLPTKEQKTQRLISELSLLNHKLPARVWLPTAGFDHHVVRVPHTQAVVLNSKDKAPYLIYVEVLECENFDTTSVPARIPENRRDPEDPSAVALKEPWQEKVRRIREGSPYGHLPNWRLLSVIVKCGDDLRQELLAFQVLKQLQSIWEQERVPLWIKPYKILVISADSGMIEPVVNAVSIHQVKKQSQLSLLDYFLQEHGSYTTEAFLSAQRNFVQSCAGYCLVCYLLQVKDRHNGNILLDAEGHIIHIDFGFILSSSPRNLGFETSAFKLTTEFVDVMGGLDGDMFNYYKMLMLQGLIAARKHMDKVVQIVEIMQQGSQLPCFHGSSTIRNLKERFHMSMTEEQLQLLVEQMVDGSMRS
modifications: phosphoserine at 294 (in vitro by protein kinase A)
notes: phosphatidylinositol 4-kinase IIIβ (PI4KB), residues 128-799 with internal deletion of a disordered loop (residues 423-522) and T292R; also called P-PI4KB; phosphatidylinositol 4-kinase IIIβ; source: phosphorylated in vitro by PKA; Mono Q, SEC
With B1, the “stoichiometry N” value in series [1] amounted to 2.

B2: ACBD3 (Acyl-CoA-binding domain-containing protein), tag cleaved (natural protein, UniProt Q9H3P7 1-528, looked up)
chain: MAAVLNAERLEVSVDGLTLSPDPEERPGAEGAPLLPPPLPPPSPPGSGRGPGASGEQPEPGEAAAGGAAEEARRLEQRWGFGLEELYGLALRFFKEKDGKAFHPTYEEKLKLVALHKQVLMGPYNPDTCPEVGFFDVLGNDRRREWAALGNMSKEDAMVEFVKLLNRCCHLFSTYVASHKIEKEEQEKKRKEEEERRRREEEERERLQKEEEKRRREEEERLRREEEERRRIEEERLRLEQQKQQIMAALNSQTAVQFQQYAAQQYPGNYEQQQILIRQLQEQHYQQYMQQLYQVQLAQQQAALQKQQEVVVAGSSLPTSSKVNATVPSNMMSVNGQAKTHTDSSEKELEPEAAEEALENGPKESLPVIAAPSMWTRPQIKDFKEKIQQDADSVITVGRGEVVTVRVPTHEEGSYLFWEFATDNYDIGFGVYFEWTDSPNTAVSVHVSESSDDDEEEEENIGCEEKAKKNANKPLLDEIVPVYRRDCHEEVYAGSHQYPGRGVYLLKFDNSYSLWRSKSVYYRVYYTR
notes: ACBD3 with ACBD, CAR, Q and GOLD domains; no limits of the construct are printed; not shown: His6-GB1, N-terminal, cleaved
With B2, the binding result with pseudo-wt PI4KB is given as “binds”.

B3: ACBD3 with N-terminal 6xHis-GB1 tag (for GUV reconstitution) (natural protein, UniProt Q9H3P7 1-528, looked up)
chain: MAAVLNAERLEVSVDGLTLSPDPEERPGAEGAPLLPPPLPPPSPPGSGRGPGASGEQPEPGEAAAGGAAEEARRLEQRWGFGLEELYGLALRFFKEKDGKAFHPTYEEKLKLVALHKQVLMGPYNPDTCPEVGFFDVLGNDRRREWAALGNMSKEDAMVEFVKLLNRCCHLFSTYVASHKIEKEEQEKKRKEEEERRRREEEERERLQKEEEKRRREEEERLRREEEERRRIEEERLRLEQQKQQIMAALNSQTAVQFQQYAAQQYPGNYEQQQILIRQLQEQHYQQYMQQLYQVQLAQQQAALQKQQEVVVAGSSLPTSSKVNATVPSNMMSVNGQAKTHTDSSEKELEPEAAEEALENGPKESLPVIAAPSMWTRPQIKDFKEKIQQDADSVITVGRGEVVTVRVPTHEEGSYLFWEFATDNYDIGFGVYFEWTDSPNTAVSVHVSESSDDDEEEEENIGCEEKAKKNANKPLLDEIVPVYRRDCHEEVYAGSHQYPGRGVYLLKFDNSYSLWRSKSVYYRVYYTR
notes: ACBD3 with ACBD, CAR, Q and GOLD domains; Tethered to GUVs that contain DGS-NTA(Ni); also called membrane tethered ACBD3; not shown: His6-GB1, N-terminal, kept
In the case of B3, the binding result in series [2] was “binds”.

(Values after PMC6345845, “Phosphatidylinositol 4-kinase IIIβ (PI4KB) forms highly flexible heterocomplexes that include ACBD3, 14-3-3, and Rab11 proteins” (Scientific Reports, 2019).)
